The text below walks through data of patent US20230374526A1, “FORSKOLIN-INDUCIBLE PROMOTERS AND HYPOXIA-INDUCIBLE PROMOTERS” (ASKLEPIOS BIOPHARMACEUTICAL, INC., priority 2020, published 2023).

One data set deals with CHO-GSK1SV cell line. As to the kind of experiment: SEAP expression from hypoxia-inducible promoter in stably integrated cell line, normoxia vs 24 h hypoxia. It counts as cell-based, chinese hamster. Conditions: normalised to cell number. The method, then: Cell suspensions of 6×10^5 cells per mL are incubated on an orbital shaker set at 8% CO2, 20% O2, 37° C., 85% relative humidity and 140 rpm overnight. 2.86×10^7 cells were centrifuged at 200 g for 3 minutes. Media is then aspirated and cell pellet resuspended in 2 mL fresh CD-CHO media to obtain a concentration of 1.43×10^7 cells per mL. 700 μL of cell suspension was added to each of two electroporation cuvettes each containing […] of linearised DNA in 100 μL of sterile TE buffer (Thermofisher, 12090015). Each cuvette was electroporated, delivering a single pulse of 300V, […] with resistance to infinity. Immediately after delivery of pulse electroplated cells were transferred to Erlenmeyer 125 mL flask containing 20 mL of CD-CHO media pre-warmed to 37° C. […] Cells are transferred to fresh CD-CHO media 24 hours after transfection and cell cultures monitored and given fresh CD-CHO media every 2-4 days. […]
Stably transfected CHO-GS cells were seeded at 500,000 cells/ml and allowed to grow for 24 hrs, at this point the cells were counted and placed under hypoxic conditions as previously described. After 24 hrs, the cell numbers and the expression of SEAP was measured.
SEAP Reporter Gene Assay, chemiluminescent (Roche, CAT #11 779 842 001) was used to measured SEAP activity as per manufacturers protocol. […] The signal is then read at 477 nm and compared to a calibration curve. […]

The subject of another data set is CHO-GS cells. As to the kind of experiment: Luciferase expression from hypoxia-inducible promoter, transient transfection, normoxia vs 24 h hypoxia. It counts as cell-based, chinese hamster. Conditions: CHO_GS suspension cell line. As for the experimental part:
40 ml of cells were grown in a 250 ml vented Erlenmeyer flask (Sigma-Aldrich CLS431144) at 37° C., 20% O2, 8% CO2 with agitation at 100 rpm. Cells were seeded as at 300,000 cells/ml.
One day before transfection, the cells were counted using a haemocytometer and split to 500,000 cells/ml.
On the day of transfection, the cells are seeded to 1,000,000 cells/ml in 500 μl of appropriate medium (Thermofisher, CD-CHO 10743029) in a 24 well plate. 0.625 μg of DNA per well was then added to 10 μl of OptiMem medium (Thermofisher; 11058021) and incubated for 5 minutes at room temperature.
Concurrently, 0.625 μl of Freestyle Max reagent (Thermofisher, 16447100) was made up to 10 μl by addition of OptiMem and incubated for 5 minutes at room temperature. After this incubation, both mixes were added to the same tube and incubated at room temperature for 25-30 minutes. The DNA/Max reagent mix (20 μl/well) was then added directly to the cells and the cells incubated at 37 C, 8% CO2 with agitation at 100 rpm. […]
After transfection the cells were incubated for 24 hrs in normoxic conditions (20% oxygen). Induction of the promoters was assessed by using luciferase activity after 24 hrs in normoxia or hypoxia (5% oxygen, 10% carbon dioxide and 85% nitrogen). […] Luciferase activity was measured as described above.

For the next data set, the system named is HEK293-T cells. As to the kind of experiment: Luciferase expression from hypoxia-inducible promoter, normoxia vs 24 h hypoxia. It counts as cell-based, human. The method, then:
HEK293-T are seeded at a density of 20%. Once they reached a confluence between 60 and 80%, the media is changed with DMEM (#21885-025—Thermo Scientific) supplemented with 10% FBS (Gibco, 26140). After 3 hours, the cells were transfected by a transfection mix. The transfection mix is prepared by adding DNA (2 μg per 6 well plate) and PEI 25 kDA (#23966-1—Polyscience) in a ratio of 1:3 in sterile DPBS (#14190169—ThermoFisher Scientific). After mixing, the transfection mix is incubated at room temperature for 30 minutes and then added directly to the cells. After 16 to 18 h post transfection, the media is changed to DMEM+2% FBS. […]
After transfection the cells were incubated for 24 hrs in normoxic conditions (20% oxygen). Induction of the promoters was assessed by using luciferase activity after 24 hrs in normoxia or hypoxia (5% oxygen, 10% carbon dioxide and 85% nitrogen). […]
Luciferase activity was measured using LARII (Dual Luciferase Reporter 1000 assay system, Promega, E1980).
Media was removed from the cells at the respective time point (0, 3, 5, 24 hrs after induction). […] 10 μl of supernatant was pipetted into white 96-well plate and luminescence measured by addition of 50 μl of LARII substrate.
β-galactosidase activity was measured as per manufacturer's instructions (Mammalian βGalactosidase Assay Kit, 75707/75710, Thermo Scientific) using 25 μl of lysate. […]

B1: RTV-015: hypoxia-inducible promoter, SEQ ID NO: 129; 5 HRE1 elements spaced by 40 bp spacers, synthetic minimal promoter MP1 (nucleic acid)
DNA: ACGTGCGATGATGCGTAGCTAGTAGTGATGATGCGTAGCTAGTAGTACGTGCGATGATGCGTAGCTAGTAGTGATGATGCGTAGCTAGTAGTACGTGCGATGATGCGTAGCTAGTAGTGATGATGCGTAGCTAGTAGTACGTGCGATGATGCGTAGCTAGTAGTGATGATGCGTAGCTAGTAGTACGTGCTTGGTACCATCCGGGCCGGCCGCTTAAGCGACGCCTATAAAAAATAGGTTGCATGCTAGGCCTAGCGCTGCCAGTCCATCTTCGCTAGCCTGTGCTGCGTCAGTCCAGCGCTGCGCTGCGTAACGGCCGCC
modifications: Synp-RTV-015
notes: 5 HRE1 elements spaced by 40 bp spacers, synthetic minimal promoter MP1
With B1, the “SEAP activity in normoxia” value with CHO-GSK1SV cell line was “almost no SEAP activity”. In addition, the “SEAP expression after 24 hours in hypoxia (vs normoxia)” value in the data set on CHO-GSK1SV cell line is “induced”. Moreover, the “Luciferase expression after 24 hours in hypoxia (vs normoxia)” value in the data set with CHO-GS cells (5% oxygen) and in the data set on HEK293-T cells (5% oxygen) was “induced” each time. Besides, the “Luciferase activity in normoxia” value in the data set on CHO-GS cells (20% oxygen) and in the data set on HEK293-T cells (20% oxygen) was “almost no luciferase activity” in each case.
